Data: patent US20250064890A1, “PROTEIN COMPOSITIONS FOR THE TREATMENT OF INFLAMMATORY DISEASES” (Unichem Laboratories Limited, priority 2021, published 2025)

Key:
[1] = test system: oral (buccal) mucosa cells (TR146); test: Annexin positive cell population against 5-FU damage; type: cell-based, human
[2] = test system: oral (buccal) mucosa cells (TR146); test: Sub(G0/G1) cell population (cell cycle) against 5-FU induced damage; type: cell-based, human; conditions: for % Decrease in Apoptotic cells (with respect to control): Sub G0/G1
Description: (§1) To determine the effect of test item on cell cycle, oral buccal mucosal cells (TR146) were incubated overnight in 5% CO2 incubator at 37° C. for 24 h. […] After 24 h of treatment, cells were exposed to chemotherapy (5-FU 10 mM) for 24 h or radiotherapy (Gamma radiation (3.5 kGy) using Cobalt 60) for 2 h.
(§2) After incubation, cells were harvested by trypsinization and processed for Cell cycle assay. Accordingly, cells were harvested into prelabeled centrifuge tubes and centrifuged at 450 g for 5 min at room temperature (RT, low brake). The supernatants were removed carefully and discarded. 1 ml of 1× phosphate buffer saline (PBS) was added to the pellet and resuspended gently to make homogenous suspension. Cells were centrifuged at 450 g for 5 min, RT (low brake). The supernatant was carefully removed leaving behind approx. 100 μl of PBS. Cells were resuspended gently yet thoroughly in residual PBS. Ice-cold 70% ethanol (100 μl) was added drop-wise into cells in each tube while vortexing at low speed (fixation step). Cells stored at 4° C. for 24 h were centrifuged at 450 g for 5 min, RT (low brake). The supernatant was carefully removed without touching the pellet and discarded. 1 ml of 1×PBS was added into pellet and resuspended gently. Cells were incubated for 1 minute at RT. Cells were centrifuged at 450 g for 5 min, RT (low brake). The supernatant was removed carefully without touching the pellet, leaving behind approx. 20-50 μl of PBS. 200 μl of cell cycle reagent was added into each tube. Cells were resuspended gently and mixed. Cells were incubated for 30 min at RT in the dark. The stained samples were transferred into 96-well plates and acquired on flow cytometer (Guava technologies). Percentage of cells in Sub (G0/G1) phase were determined based on the concept that cell cycle reagent contains PI stain, which stains DNA of cells in different phases of cell cycle; Sub (G0/G1), G1, S, G2 and M. Cells in Sub (G0/G1) phase correspond to apoptotic cells. Percent inhibition in apoptotic cells is determined by the formula:
(§3) =[(% Sub(G0/G1) cells in 5-FU/radiation alone)−(% Sub(G0/G1) cells in TI+5-FU/radiation)/% Sub(G0/G1) cells in 5-FU/radiation alone]*100

[3] = test system: oral (buccal) mucosa cells (TR146); test: Sub(G0/G1) cell population (cell cycle) against radiation induced damage; type: cell-based, human; conditions: for % Decrease in Apoptotic cells (with respect to control): Sub G0/G1
Description: as §1, §2, §3

[4] = Body weight change in 5-FU induced OM hamsters; type: in vivo, golden Syrian hamsters; conditions: Day 4 to Day 12, with respect to Day 4
Description: In-vivo experiments conducted in healthy golden Syrian hamsters wherein animals were grouped as below:
(§4) To induce OM, animals were administered (except normal control) 5-Fluorouracil (5-FU) by intraperitoneal route at doses of 60 mg/kg & 40 mg/kg respectively on first two days. On Day 4, under anesthesia, with aim of enhancing OM, mechanical irritation of the oral mucosa were done using wire brush. Treatment was initiated from Day 4 to Day 12. For group 3 animals 100 μl of vehicle comprising of standard drug Dexamethasone at 0.1 mg was instilled in buccal cheek pouch. For group 4, 5 and 6 animals 100 μl of vehicle comprising of SEQ ID NO. 2 at 0.25 mg, 0.5 mg & 1 mg, respectively was instilled in buccal cheek pouch. At the end of treatment period, cheek pouch of the hamsters was exposed, Mucositis scoring was carried out and images were captured. The animals were then humanely sacrificed, cheek pouch/jugular mucosa were isolated and used for biomarker estimation and histopathological investigation by using ELISA method and Hematoxylin and Eosin (H&E) staining, respectively.
Body weight of each animal was recorded daily till the end of experiment. Percentage change in body weight of the animals was calculated by using formula with respect to Day 4.

[5] = test system: 5-Fluorouracil induced OM; test: Mucositis severity score, 5-FU induced OM in hamsters; type: in vivo, golden Syrian hamsters; conditions: for Mucositis score: after 12 days, scale 0-5
Description: as §4
Mucositis severity was scored as given below: • Cheek pouch completely healthy—0; Mild erythema—1; • Severe erythema and superficial erosion—2; Formation of ulcers in one or more places—3; Cumulative ulcer formation about 50% of cheek pouch surface area—4; Complete ulceration of the cheek pouch mucosa—5.

TNF-α = TNF-α in jugular mucosa (ELISA), 5-FU induced OM in hamsters; type: in vivo, golden Syrian hamsters; conditions: for TNF-α levels, % Decrease vs G2: G2 = OM + Vehicle
Description: as §4
(§5) Further, for biomarker estimation jugular mucosa was dissected out, tissue weighed and stored in ice cold 1×PBS. 100 mg of tissue was taken and in 1 ml of 1×PBS buffer. Supernatant of homogenate was used for analysis of TNF-α and Interleukin-1β using ELISA method as per manufacturers instruction. The levels of TNF-α and Interleukin-1β are given in Table 13, FIG. 2 and Table 14, FIG. 3, respectively.

Interleukin-1β = Interleukin-1β in jugular mucosa (ELISA), 5-FU induced OM in hamsters; type: in vivo, golden Syrian hamsters; conditions: for IL-1β levels, % Decrease vs G2: G2 = OM + Vehicle
Description: as §4, §5

[6] = 0.01 μg/ml + Radiation (3.5 kGy)
[7] = 0.1 μg/ml + Radiation (3.5 kGy)
[8] = hamsters suffering from OM, in words

B1: SEQ ID NO 2: recombinant lectin, variant of the S. rolfsii lectin amino acid sequence (reported as Rec-2 in WO 2010/095143) (protein)
chain: TYKITVRVYQTNPDAFFHPVEKTVWKYANGGTWTITDDQHVLTMGGSGTSGTLRFHADNGESFTATFGVHNYKRWCDIVTNLAADETGMVINQQYYSQKNREEARERQLSNYQVKNAKGRNFQIVYTEAEGNDLHANLIIG
- % Apoptotic cells (Annexin +ve) ([1]; 0.01 μg/ml + 5FU (10 mM)): 3%
- % Decrease in Apoptotic cells (with respect to 5-FU) ([1]; 0.01 μg/ml + 5FU (10 mM)): 81.7%
- % Apoptotic cells (Annexin +ve) ([1]; 1 μg/ml + 5FU (10 mM)): 3.1%
- % Decrease in Apoptotic cells (with respect to 5-FU) ([1]; 1 μg/ml + 5FU (10 mM)): 81.1%
- % Apoptotic cells (Annexin +ve) ([1]; 10 μg/ml + 5FU (10 mM)): 8%
- % Decrease in Apoptotic cells (with respect to 5-FU) ([1]; 10 μg/ml + 5FU (10 mM)): 51.5%
- % Apoptotic cells (Annexin +ve) ([1]; 50 μg/ml + 5FU (10 mM)): 19.3%
- % Decrease in Apoptotic cells (with respect to 5-FU) ([1]; 50 μg/ml + 5FU (10 mM)): −17.4%
- % Apoptotic cells (Annexin +ve) ([1]; 100 μg/ml + 5FU (10 mM)): 26%
- % Decrease in Apoptotic cells (with respect to 5-FU) ([1]; 100 μg/ml + 5FU (10 mM)): −58.5%
- % Apoptotic cells (Sub G0/G1) ([2]; 0.1 μg/ml + 5FU (10 mM)): 11.4%
- % Decrease in Apoptotic cells (with respect to control) ([2]; 0.1 μg/ml + 5FU (10 mM)): 63.1%
- % Apoptotic cells (Sub G0/G1) ([2]; 10 μg/ml + 5FU (10 mM)): 6.8%
- % Decrease in Apoptotic cells (with respect to control) ([2]; 10 μg/ml + 5FU (10 mM)): 78%
- % Apoptotic cells (Sub G0/G1) ([2]; 25 μg/ml + 5FU (10 mM)): 14.2%
- % Decrease in Apoptotic cells (with respect to control) ([2]; 25 μg/ml + 5FU (10 mM)): 54.1%
- % Apoptotic cells (Sub G0/G1) ([2]; 50 μg/ml + 5FU (10 mM)): 40.7%
- % Decrease in Apoptotic cells (with respect to control) ([2]; 50 μg/ml + 5FU (10 mM)): −32.0%
- % Apoptotic cells (Sub G0/G1) [3, 6]: 15.2%
- % Decrease in Apoptotic cells (with respect to control) [3, 6]: 56.9%
- % Apoptotic cells (Sub G0/G1) [3, 7]: 14.3%
- % Decrease in Apoptotic cells (with respect to control) [3, 7]: 59.5%
- % Apoptotic cells (Sub G0/G1) ([3]; 1 μg/ml + Radiation (3.5 kGy)): 22.3%
- % Decrease in Apoptotic cells (with respect to control) ([3]; 1 μg/ml + Radiation (3.5 kGy)): 36.9%
- % Apoptotic cells (Sub G0/G1) ([3]; 10 μg/ml + Radiation (3.5 kGy)): 35.7%
- % Decrease in Apoptotic cells (with respect to control) ([3]; 10 μg/ml + Radiation (3.5 kGy)): −1.3%
- decrease of body weight ([4]; G4, 0.25 mg/Animal in buccal cheek pouch): 3.61%
- decrease of body weight ([4]; G5, 0.5 mg/Animal in buccal cheek pouch): 4.36%
- decrease of body weight ([4]; G6, 1 mg/Animal in buccal cheek pouch): 6.8%
- Mucositis score ([5]; G4, 0.25 mg/animal): 3.00±0.4
- Mucositis score ([5]; G5, 0.5 mg/animal): 2.8±0.3
- Mucositis score ([5]; G6, 1 mg/animal): 4.00±0.3
- mucositis score as compared to the untreated subjects [5, 8]: reduction
- TNF-α levels, Mean (TNF-α; G4, 0.25 mg/Animal): 153.48 pg/mL
- TNF-α levels, % Decrease vs G2 (TNF-α; G4, 0.25 mg/Animal): −23.77%
- TNF-α levels, Mean (TNF-α; G5, 0.5 mg/Animal): 155.76 pg/mL
- TNF-α levels, % Decrease vs G2 (TNF-α; G5, 0.5 mg/Animal): −25.61%
- TNF-α levels, Mean (TNF-α; G6, 1 mg/Animal): 79.37 pg/mL
- TNF-α levels, % Decrease vs G2 (TNF-α; G6, 1 mg/Animal): 36.00%
- levels of TNF-α as compared to the untreated subjects (TNF-α; [8]): reduction
- IL-1β levels, Mean (Interleukin-1β; G4, 0.25 mg/Animal): 79.10
- IL-1β levels, % Decrease vs G2 (Interleukin-1β; G4, 0.25 mg/Animal): 54.45%
- IL-1β levels, Mean (Interleukin-1β; G5, 0.5 mg/Animal): 105.66
- IL-1β levels, % Decrease vs G2 (Interleukin-1β; G5, 0.5 mg/Animal): 39.16%
- IL-1β levels, Mean (Interleukin-1β; G6, 1 mg/Animal): 101.96
- IL-1β levels, % Decrease vs G2 (Interleukin-1β; G6, 1 mg/Animal): 41.29%
- levels of IL-1β as compared to the untreated subjects (Interleukin-1β; [8]): reduction
